For assay [1], the target named is human Bcl10 (hBcl10), endogenous in the cells used (human) (UniProt O95999). Kind of assay: cell-based or functional assay.
Assay [2] deals with FLAG-tagged, point mutated Bcl10 (R228/G) (human) (UniProt O95999). Kind of assay: cell-based or functional assay.

The values below come from EP2015073A1.

With “Malt1 with deletion of the caspase-like domain (Δcasp) or mutation of the active site residues Cys 464 or His 415”, the relative NF-κB activity (dual luciferase assay), percent of the maximum level achieved with wt Malt1 in assay [1] fell in the range of 50 to 65%.
The substance “human Malt1 (hMalt1), endogenous in the cells used (from UniProt Q9UDY8 1-824) (enzyme)” had a relative NF-κB activity (dual luciferase assay), percent of the maximum levels (wt Bcl10) in assay [2] of 75%.
